Data: US20140335077A1, “Compositions and Methods for the Treatment of Cancer Using IGF-IR Antagonists and MAPK/ERK Inhibitors” (priority 2013, published 2014)

Tests used:
Assay type in all cases: cell-based
[1] = system: Colo 205; experiment: PrestoBlue cell viability, anti-IGF-1R antibody with U0126, Colo 205 (colon carcinoma); details: Colo 205 cells, 48 h
Protocol: (§1) Cells were incubated in 96 well tissue culture plates and cell viability was measured by PrestoBlue cell viability assay (Invitrogen, CA, USA) according to manufacturer's instructions. Fluorescence was measured with excitation at 560 nm and emission at 590 nm. Cell number was calculated from standard curves of fluorescence measurements from known numbers of cells. Triplicate cultures were performed on all experiments.
(§2) The effects of anti-IGF-1R antibodies/MEK inhibitor combination treatment on viability of different types of tumor cells were investigated using PrestoBlue cell viability assay (Invitrogen, CA, USA) according to manufacturer's instructions. (Table 3).
(§3) Cells were incubated in serum free medium for 12 h followed by pretreatment for 60 min without or with 0.5, 1, 3 or 5 μM of the ERK inhibitor U0126, and then treated without or with 100 ng/ml anti-IGF-1R antibodies (Figitumumab or αIR-3 (Calbiochem, US). Cells were incubated in 96 well tissue culture plates for 48 hours and cell viability was measured by PrestoBlue cell viability assay. Fluorescence was measured with excitation at 560 nm and emission at 590 nm. Cell number was calculated from standard curves of fluorescence measurements from known numbers of cells. Triplicate cultures were performed on all experiments. The inhibition induced by anti-IGF-1R antibodies treated cells was calculated as percentage of untreated cells.

[2] = system: SKBR3 and IGF-1R knockout MEF cells (R−); experiment: Cell viability of negative control cells (PrestoBlue); details: 100 ng/ml, 48 h
Protocol: (§4) FIG. 1A-FIG. 1C. Effects of Figitumumab (CP-751871 (CP)) treatment on cell viability in ES cell lines. (A) Cell lysates were prepared from the indicated cell lines and analyzed by WB for total IGF-1R expression and GAPDH as a loading control. […] Data correspond to the mean±SEM from three independent experiments. […] (C) Indicated cells were treated without and with 100 ng/ml CP for 48 h in the absence (SFM) or presence of 10% fetal bovine serum (Serum) and cell viability assayed by PrestoBlue reagent. […] Data correspond to the mean±SEM from three independent experiments. Statistical analysis compared with SKBR3: *P<0.05, **P<0.01, **P<0.001.
as §1
IGF-1R expression was investigated in a panel of validated Ewing's sarcoma (ES) cell lines: SKES, RDES, CADO, A673 and SKNMC. Breast cancer cell line SKBR3, expressing low IGF-1R levels and IGF-1R knockout MEF cells (R−) were used as negative controls. […]

[3] = system: OMM 2.3; experiment: PrestoBlue cell viability, anti-IGF-1R antibody with U0126, OMM 2.3 (liver metastasis of uveal melanoma); details: OMM 2.3 cells, 48 h
Protocol: as §1, §2, §3

[4] = system: BE; experiment: PrestoBlue cell viability, anti-IGF-1R antibody with U0126, BE (melanoma); details: 48 h
Protocol: as §1, §2, §3

[5] = system: HEPG2; experiment: PrestoBlue cell viability, anti-IGF-1R antibody with U0126, HEPG2 (hepatic carcinoma); details: 48 h
Protocol: as §1, §2, §3

[6] = system: Ewing's sarcoma (ES) cell lines: SKES, RDES, CADO, A673 and SKNMC; experiment: Cell viability of Ewing's sarcoma cell lines (PrestoBlue); details: 48 h
Protocol: as §4
FIG. 6A-FIG. 6C. […] Cell lysates were prepared from the same samples and analyzed by WB for β-arrestin1 (βarr1) and GAPDH as a loading control. Signals were quantified by densitometry, normalized to GAPDH and presented as a percentage of the doxycycline untreated cells. […] During the experiment, cell lysates were collected at 10 min after CP stimulation and analyzed by WB for P-ERK and total ERK as a loading control and at 12 h after CP stimulation and analyzed by WB for IGF-1R and GAPDH as a loading control. Signals were quantified by densitometry, normalized to the loading control and presented as a percentage of the CP untreated cells. […]

[7] = system: OCM-1; experiment: PrestoBlue cell viability, anti-IGF-1R antibody with U0126, OCM-1 (uveal melanoma); details: OCM-1 cells, 48 h
Protocol: as §1, §2, §3

[8] = system: A549; experiment: PrestoBlue cell viability, anti-IGF-1R antibody with U0126, A549 (lung cancer); details: 48 h
Protocol: as §1, §2, §3

[9] = system: SKMel28; experiment: PrestoBlue cell viability, anti-IGF-1R antibody with U0126, SKMel28 (melanoma); details: 48 h
Protocol: as §1, §2, §3

[10] = U0126 0 μM (60 min pretreatment)
[11] = U0126 0.5 μM (60 min pretreatment)
[12] = U0126 1 μM (60 min pretreatment)
[13] = U0126 3 μM (60 min pretreatment)
[14] = U0126 5 μM (60 min pretreatment)

B1: CP-751,871: anti-IGF-1R antibody figitumumab (Pfizer), IGF-1R antagonist (antibody, chains of the INN, looked up)
heavy: EVQLLESGGGLVQPGGSLRLSCTASGFTFSSYAMNWVRQAPGKGLEWVSAISGSGGTTFYADSVKGRFTISRDNSRTTLYLQMNSLRAEDTAVYYCAKDLGWSDSYYYYYGMDVWGQGTTVTVSSASTKGPSVFPLAPCSRSTSESTAALGCLVKDYFPEPVTVSWNSGALTSGVHTFPAVLQSSGLYSLSSVVTVPSSNFGTQTYTCNVDHKPSNTKVDKTVERKCCVECPPCPAPPVAGPSVFLFPPKPKDTLMISRTPEVTCVVVDVSHEDPEVQFNWYVDGVEVHNAKTKPREEQFNSTFRVVSVLTVVHQDWLNGKEYKCKVSNKGLPAPIEKTISKTKGQPREPQVYTLPPSREEMTKNQVSLTCLVKGFYPSDIAVEWESNGQPENNYKTTPPMLDSDGSFFLYSKLTVDKSRWQQGNVFSCSVMHEALHNHYTQKSLSLSPG
light: DIQMTQFPSSLSASVGDRVTITCRASQGIRNDLGWYQQKPGKAPKRLIYAASRLHRGVPSRFSGSGSGTEFTLTISSLQPEDFATYYCLQHNSYPCSFGQGTKLEIKRTVAAPSVFIFPPSDEQLKSGTASVVCLLNNFYPREAKVQWKVDNALQSGNSQESVTEQDSKDSTYSLSSTLTLSKADYEKHKVYACEVTHQGLSSPVTKSFNRGEC
B1 was tested, and the “Percentage inhibition of antibody treated cells (100 ng/ml)” value (“Percentage inhibition” below) [1, 10] was 21%, the “Percentage inhibition” value [1, 11] was 28% and the “Percentage inhibition” value [1, 12] was 34%. The “Percentage inhibition” value [1, 13] was 45%, the “Percentage inhibition” value [1, 14] was 67% and the “Cell viability of negative control cells” value [2] was “unaffected”. For the same molecule, the “Percentage inhibition” value [3, 10] was 12%, the “Percentage inhibition” value [3, 11] was 35% and the “Percentage inhibition” value [3, 12] was 45%. For the same molecule, the “Percentage inhibition” value [3, 13] was 65%, the “Percentage inhibition” value [3, 14] was 97% and the “Percentage inhibition” value [4, 10] was 22%. The “Percentage inhibition” value [4, 11] was 27%, the “Percentage inhibition” value [4, 12] was 32% and the “Percentage inhibition” value [4, 13] was 45%. The “Percentage inhibition” value [4, 14] was 55%, the “Percentage inhibition” value [5, 10] was 7% and the “Percentage inhibition” value [5, 11] was 11%. The “Percentage inhibition” value [5, 12] was 22%, the “Percentage inhibition” value [5, 13] was 27% and the “Percentage inhibition” value [5, 14] was 37%. The “Cell viability (cell number) of ES cell lines” value ([6]; 100 ng/ml, presence or absence of serum, all ES cell lines) was “decreased cell number”, the “Sensitivity (cell viability) of combined treatment with MEK inhibitor U0126 versus CP-751,871 alone” value ([6]; ES cell lines, U0126 pre-treatment 60 min, 100 ng/ml CP) was “increased sensitivity” and the “Percentage inhibition” value [7, 10] was 22%. The “Percentage inhibition” value [7, 11] was 28%, the “Percentage inhibition” value [7, 12] was 35% and the “Percentage inhibition” value [7, 13] was 46%. The “Percentage inhibition” value [7, 14] was 55%, the “Percentage inhibition” value [8, 10] was 40% and the “Percentage inhibition” value [8, 11] was 56%. The “Percentage inhibition” value [8, 12] was 77%, the “Percentage inhibition” value [8, 13] was 88% and the “Percentage inhibition” value [8, 14] was 98%. For the same molecule, the “Percentage inhibition” value [9, 10] was 5%, the “Percentage inhibition” value [9, 11] was 15% and the “Percentage inhibition” value [9, 12] was 17%. The “Percentage inhibition” value [9, 13] was 25% and the “Percentage inhibition” value [9, 14] was 29%.
